Results from patent publication US20120316071A1 (published 2012).
Changes are numbered by the printed parent chain. Numbers in names are those of the source.

B1: Fab VH5-51_IGHD5-18*01>3_IGHJ4*01 G100K/G104T G24A/S28R/G35V (KT ARV) & V3-4_IGLJ1*01 V91L/S96P S52H (Fab, V domains shown)
VH: EVQLVQSGAEVKKPGESLKISCKTSGYRFTSYWIVWVRQMPGKGLEWMGIIYPGDSDTRYSPSFQGQVTISADKSISTAYLQWSSLKASDTAMYYCARRKYSYTYDYFDYWGQGTLVTVSS
VL: QTVVTQEPSFSVSPGGTVTLTCGLSSGSVSTSYYPSWYQQTPGQAPRTLIYHTNTRSSGVPDRFSGSILGNKAALTITGAQADDESDYYCLLYMGPGISYVFGTGTKVTVL
notes: Fab; Expressed in E. coli with CH1 (plasmid A, His6 and Flag tags) and lambda CL (plasmid E); Fab H:KT TRV & L:LP S52H; also called G100K/G104T G24A/S28R/G35V & V91L/S96P S52H
B2: Fab VH5-51_IGHD5-18*01>3_IGHJ4*01 G104T & V3-4_IGLJ1*01 (wildtype) (Fab, V domains shown)
VH: B1 VH with T24G, R28S, V35G, K100G
VL: B1 VL with H52S, L91V, P96S
notes: Fab; Expressed in E. coli with CH1 (plasmid A, His6 and Flag tags) and lambda CL (plasmid E); also called G104T & Wildtype
B3: Fab VH1-46_IGHD6-6*01_IGHJ1*01 S102A/S103P/S104F/H111F (APFF) & L6_IGKJ1*01 S28V (Fab, V domains shown)
VH: QVQLVQSGAEVKKPGASVKVSCKASGYTFTSYYMHWVRQAPGQGLEWMGIINPSGGSTSYAQKFQGRVTMTRDTSTSTVYMELSSLRSEDTAVYYCAREEYAPFSAEYFQFWGQGTLVTVSS
VL: EIVLTQSPATLSLSPGERATLSCRASQVVSSYLAWYQQKPGQAPRLLIYDASNRATGIPARFSGSGSGTDFTLTISSLEPEDFAVYYCQQRSNWPPWTFGQGTKVEIKR
notes: Tested as a Fab; Expressed in E. coli from Plasmid A (CH1 with His6 and Flag tags) and Plasmid C (kappa CL); also called APFF & S28V
B4: Fab VH5-51_IGHD5-18*01>3_IGHJ4*01 G100K/G104T (H:KT) & V3-4_IGLJ1*01 G23A (Fab, V domains shown)
VH: B1 VH with T24G, R28S, V35G
VL: B1 VL with G23A, H52S, L91V, P96S
notes: Fab expressed in E. coli; Plasmid A adds CH1 with His6 and Flag tags to the heavy chain; Plasmid E adds lambda CL to the light chain; also called G100K/G104T & G23A
B5: Fab VH5-51_IGHD5-18*01>3_IGHJ4*01 G100K/G104T (H:KT) & V3-4_IGLJ1*01 S25A (Fab, V domains shown)
VH: B1 VH with T24G, R28S, V35G
VL: B1 VL with S25A, H52S, L91V, P96S
notes: Fab expressed in E. coli; Plasmid A adds CH1 with His6 and Flag tags to the heavy chain; Plasmid E adds lambda CL to the light chain; also called G100K/G104T & S25A
B6: Fab VH5-51_IGHD5-18*01>3_IGHJ4*01 G100K/G104T (H:KT) & V3-4_IGLJ1*01 S28A (Fab, V domains shown)
VH: B1 VH with T24G, R28S, V35G
VL: B1 VL with S28A, H52S, L91V, P96S
notes: Fab expressed in E. coli; Plasmid A adds CH1 with His6 and Flag tags to the heavy chain; Plasmid E adds lambda CL to the light chain; also called G100K/G104T & S28A (light chain)
B7: Fab VH5-51_IGHD5-18*01>3_IGHJ4*01 G100K/G104T (H:KT) & V3-4_IGLJ1*01 Y34A (Fab, V domains shown)
VH: B1 VH with T24G, R28S, V35G
VL: B1 VL with Y34A, H52S, L91V, P96S
notes: Fab expressed in E. coli; Plasmid A adds CH1 with His6 and Flag tags to the heavy chain; Plasmid E adds lambda CL to the light chain; also called G100K/G104T & Y34A
B8: Fab VH5-51_IGHD5-18*01>3_IGHJ4*01 G100K/G104T (H:KT) & V3-4_IGLJ1*01 P35A (Fab, V domains shown)
VH: B1 VH with T24G, R28S, V35G
VL: B1 VL with P35A, H52S, L91V, P96S
notes: Fab expressed in E. coli; Plasmid A adds CH1 with His6 and Flag tags to the heavy chain; Plasmid E adds lambda CL to the light chain; also called G100K/G104T & P35A
B9: Fab VH5-51_IGHD5-18*01>3_IGHJ4*01 G100K/G104T (H:KT) & V3-4_IGLJ1*01 T31A (Fab, V domains shown)
VH: B1 VH with T24G, R28S, V35G
VL: B1 VL with T31A, H52S, L91V, P96S
notes: Fab expressed in E. coli; Plasmid A adds CH1 with His6 and Flag tags to the heavy chain; Plasmid E adds lambda CL to the light chain; also called G100K/G104T & T31A
B10: Fab VH5-51_IGHD5-18*01>3_IGHJ4*01 G100K/G104T (H:KT) & V3-4_IGLJ1*01 V29A (Fab, V domains shown)
VH: B1 VH with T24G, R28S, V35G
VL: B1 VL with V29A, H52S, L91V, P96S
notes: Fab expressed in E. coli; Plasmid A adds CH1 with His6 and Flag tags to the heavy chain; Plasmid E adds lambda CL to the light chain; also called G100K/G104T & V29A
B11: Fab VH5-51_IGHD5-18*01>3_IGHJ4*01 G100K/G104T (H:KT) & V3-4_IGLJ1*01 S36A (Fab, V domains shown)
VH: B1 VH with T24G, R28S, V35G
VL: B1 VL with S36A, H52S, L91V, P96S
notes: Fab expressed in E. coli; Plasmid A adds CH1 with His6 and Flag tags to the heavy chain; Plasmid E adds lambda CL to the light chain; also called G100K/G104T & S36A
B12: Fab VH5-51_IGHD5-18*01>3_IGHJ4*01 G100K/G104T (H:KT) & V3-4_IGLJ1*01 S32A (Fab, V domains shown)
VH: B1 VH with T24G, R28S, V35G
VL: B1 VL with S32A, H52S, L91V, P96S
notes: Fab expressed in E. coli; Plasmid A adds CH1 with His6 and Flag tags to the heavy chain; Plasmid E adds lambda CL to the light chain; also called G100K/G104T & S32A
B13: Fab VH5-51_IGHD5-18*01>3_IGHJ4*01 G100K/G104T (H:KT) & V3-4_IGLJ1*01 Y33A (Fab, V domains shown)
VH: B1 VH with T24G, R28S, V35G
VL: B1 VL with Y33A, H52S, L91V, P96S
notes: Fab expressed in E. coli; Plasmid A adds CH1 with His6 and Flag tags to the heavy chain; Plasmid E adds lambda CL to the light chain; also called G100K/G104T & Y33A
B14: Fab VH5-51_IGHD5-18*01>3_IGHJ4*01 G100K/G104T (H:KT) & V3-4_IGLJ1*01 G27A (Fab, V domains shown)
VH: B1 VH with T24G, R28S, V35G
VL: B1 VL with G27A, H52S, L91V, P96S
notes: Fab expressed in E. coli; Plasmid A adds CH1 with His6 and Flag tags to the heavy chain; Plasmid E adds lambda CL to the light chain; also called G100K/G104T & G27A
B15: Fab VH5-51_IGHD5-18*01>3_IGHJ4*01 G100K/G104T (H:KT) & V3-4_IGLJ1*01 S30A (Fab, V domains shown)
VH: B1 VH with T24G, R28S, V35G
VL: B1 VL with S30A, H52S, L91V, P96S
notes: Fab expressed in E. coli; Plasmid A adds CH1 with His6 and Flag tags to the heavy chain; Plasmid E adds lambda CL to the light chain; also called G100K/G104T & S30A
B16: Fab VH5-51_IGHD5-18*01>3_IGHJ4*01 G100K/G104T (H:KT) & V3-4_IGLJ1*01 L24A (Fab, V domains shown)
VH: B1 VH with T24G, R28S, V35G
VL: B1 VL with L24A, H52S, L91V, P96S
notes: Fab expressed in E. coli; Plasmid A adds CH1 with His6 and Flag tags to the heavy chain; Plasmid E adds lambda CL to the light chain; also called G100K/G104T & L24A
B17: Fab VH5-51_IGHD5-18*01>3_IGHJ4*01 G100K/G104T (H:KT) & V3-4_IGLJ1*01 S26A (Fab, V domains shown)
VH: B1 VH with T24G, R28S, V35G
VL: B1 VL with S26A, H52S, L91V, P96S
notes: Fab expressed in E. coli; Plasmid A adds CH1 with His6 and Flag tags to the heavy chain; Plasmid E adds lambda CL to the light chain; also called G100K/G104T & S26A

The binders below were run against T1, Recombinant Human DLL4 (delta-like protein 4) (human, UniProt Q9NR61 27-524) (assay: ELISA, DLL4 coated on plate, Fab at 100 nM (2-fold dilution series), absorbance at 450 nm).
T1 construct: Bought recombinant human DLL4 coated on the ELISA plate; also called rHuman DLL4

ELISA signal	Binder
1.09	B1
0.17	B2

These binders were tested against T1, Recombinant Human DLL4 (delta-like …) (assay: ELISA, DLL4 coated on plate, Fab at 12.5 nM (2-fold dilution series), absorbance at 450 nm).

ELISA signal	Binder
0.5	B1
0.19	B2

These binders were tested against T2, Recombinant Human DLL4 (R&D Systems Cat#1506-D4/CF) (human, UniProt Q9NR61 27-524) (assay: ECL (MSD) multispot binding assay, DLL4 spotted on plate, Fab in solution).
T2 construct: Bought recombinant protein; also called delta-like protein 4; rHuman DLL4

ECL signal	Signal/Blank	Binder
83100	351	B3

These binders were tested against T3, Recombinant Human DLL4 (R&D Systems Cat#1506-D4/CF) (human, UniProt Q9NR61 27-524) (assay: ECL (Meso Scale Discovery) multispot binding assay, DLL4 immobilised, Fab at 100 nM).
T3 construct: Bought recombinant protein; also called delta-like protein 4; Delta-like 4

ECL signal	Binder
13500	B4
10200	B5
11500	B6
2200	B7
8260	B8
13500	B9
9320	B10
9690	B11
10400	B12
7700	B13
10700	B14
10300	B15
9630	B16
11700	B17

What follows are binders tested against T1, Recombinant Human DLL4 (delta-like …) (assay: ELISA, DLL4 coated on plate, Fab at 50 nM (2-fold dilution series), absorbance at 450 nm).

ELISA signal	Binder
0.91	B1
0.17	B2

The binders below were run against T1, Recombinant Human DLL4 (delta-like …) (assay: ELISA, DLL4 coated on plate, Fab at 25 nM (2-fold dilution series), absorbance at 450 nm).

ELISA signal	Binder
0.73	B1
0.18	B2
